Measured values: US9863962, “Aptamers and sensing technology used for detection of glycated hemoglobin in whole blood” (Alfaisal University)

What was measured:
[1] = target: T1, bovine serum albumin (BSA) (Bos taurus, UniProt P02769 P02769:25-607); test: impedance; no significant response; conditions: tags: none; Sigma
[2] = target: T2, glycated hemoglobin HbA1c (UniProt P69905;P68871 P69905:2-142,P68871:2-147); test: electrochemical impedance on HbA1C-gold electrode; 50 mM Tris pH 7.5, 150 mM NaCl, 2 mM MgCl2; conditions: tags: none; purified HbA1C from Monojo (Amman, Jordan); immobilized on cysteamine/PDITC gold electrode; chain copies: 2
T2 sequence (P69905 2-142, chain 1 of 2): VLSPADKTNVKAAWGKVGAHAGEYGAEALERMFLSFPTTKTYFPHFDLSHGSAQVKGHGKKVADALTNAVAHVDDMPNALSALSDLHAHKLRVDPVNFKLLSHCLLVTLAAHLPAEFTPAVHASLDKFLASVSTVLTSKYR
T2 sequence (P68871 2-147, chain 2 of 2): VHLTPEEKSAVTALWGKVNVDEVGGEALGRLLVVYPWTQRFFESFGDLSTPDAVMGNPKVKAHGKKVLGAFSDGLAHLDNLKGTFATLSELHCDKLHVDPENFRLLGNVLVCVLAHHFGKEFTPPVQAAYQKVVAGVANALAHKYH
Method: (§1) Binding analysis of the aptamer sequences to Hb and HbA1C: In order to test the binding affinity of the aptamer sequences to their protein targets, some representative sequences were synthesized after eliminating the primers sequence. A solution of 25 nM from each aptamer sequence in binding buffer was incubated with the Hb and HbA1C-modified electrodes (described in section 2.3.4) for 30 min. The electrodes were then washed with binding buffer and impedance measurements were recorded in 5 mM [Fe(CN)_6]^{3-/4-} redox couple. The binding was then evaluated by calculating the % $RCT$ change)((R−R°/R°%).
(§2) A significant change in the $Rct$ after the incubation of most of the tested aptamers with the HbA1C electrodes while no response was obtained with scrambled DNA sequence (control DNA) indicating specific binding of the aptamers to HbA1C. […] The highest change in EIS signal was obtained for aptamers G11, G23, G18, G20, G15, therefore these aptamers were subjected to further analysis to assess their binding affinity. The dissociation constants were determined by incubating different concentrations of the aptamers with Hb and HbA1C-modified electrodes. […] The K_d were then calculated from the binding curve using non linear regression analysis. […] Four HbA1C-specific aptamers with high affinity and specificity were obtained (G11, G18, G20, G23). […]

[3] = target: T2, glycated hemoglobin HbA1c; test: square wave voltammetry aptasensor on AuNP electrode; LOD 0.2 ng/mL; conditions: tags: none; purified HbA1C from Monojo (Amman, Jordan); immobilized on cysteamine/PDITC gold electrode; chain copies: 2
Method: (§3) For the Hb and HbA1C detection and selectivity experiments, each aptamer-modified electrode on the aptasensor array chip was incubated for 30 min with specific concentrations of Hb and HbA1C standard solutions. The electrodes were then washed with 50 mM Tris-HCl buffer pH 7.4 and subjected to square wave voltammetry (SWV) measurements in 10 mM [Fe(CN)_6]^{3-/4-} redox couple in 0.1 M PBS buffer solution. The parameters used for the SWV measurements: amplitude 20 mV; interval time 0.04 s; step potential −5 mV; scan rate 125 mV s-1, and frequency 25 Hz. The cyclic voltammetry (CV) experiments were conducted at a scan rate of 100 mV/s.
(§4) Dose response of the aptasensors: The aptasensors voltammetric response toward tHb and HbA1C was measured in the concentration range of 100 pg/mL to 10 µg/mL. […] Three independent measurements were done for each data point in order to assess the reproducibility of the aptasensors array. […] The linear regression equation of the HbA1C aptasensor is (i°–i)/ i°%=45.0+14.6×log C [ng/ml], R=0.997, with a detection limit (LOD) of 0.2 ng/mL and for the tHb: (i°−i)/i°%=42.5+20.2×log C [ng/ml], R=0.98, with LOD=0.34 ng/ml. The LOD was calculated from 3(S_{y/x}/m), where S_{y/x} is the standard error of estimate and m is the slope of the calibration curve. […]

[4] = target: T1, bovine serum albumin (BSA); test: square wave voltammetry; no response with BSA; conditions: tags: none; Sigma
Method: as §3, §4

[5] = target: T2, glycated hemoglobin HbA1c; test: impedance screen at 25 nM aptamer; lower signal than top five; conditions: tags: none; purified HbA1C from Monojo (Amman, Jordan); immobilized on cysteamine/PDITC gold electrode; chain copies: 2
Method: as §1
Binding affinity analysis of the aptamers: Eight representative sequences were subjected to initial binding analysis. Initial screening of the aptamer sequences (G11, G23, G20, G18, G15, G10, G22, G4) was performed using EIS to confirm their successful binding to HbA1C (FIG. 2A).

[6] = target: T1, bovine serum albumin (BSA); test: impedance; specificity control; conditions: tags: none; Sigma
Method: The binding specificity of the HbA1C aptamer (G20) was also confirmed by incubating the HbA1C modified electrode with different concentrations of non glycated Hb and BSA as control. No significant response was obtained for the non specific proteins which indicates excellent specificity of the selected aptamer (FIG. 3). Similarly, the specificity of the tHb aptamer (G15) was verified against BSA as control. The two aptamers, G15 and G20, were then applied for Hb and HbA1C detection a microarray platform.

[7] = target: T3, hemoglobin (Hb, non-glycated / total Hb) (UniProt P69905;P68871 P69905:2-142,P68871:2-147); test: electrochemical impedance on Hb-gold electrode; 50 mM Tris pH 7.5, 150 mM NaCl, 2 mM MgCl2; conditions: tags: none; purified Hb from Monojo (Amman, Jordan); immobilized on cysteamine/PDITC gold electrode; chain copies: 2
T3 sequence (P69905 2-142, chain 1 of 2): as the sequence (P69905 2-142, chain 1 of 2) above
T3 sequence (P68871 2-147, chain 2 of 2): as the sequence (P68871 2-147, chain 2 of 2) above
Method: as §1, §2

[8] = target: T3, hemoglobin (Hb, non-glycated / total Hb); test: square wave voltammetry aptasensor on AuNP electrode; LOD 0.34 ng/mL; conditions: tags: none; purified Hb from Monojo (Amman, Jordan); immobilized on cysteamine/PDITC gold electrode; chain copies: 2
Method: as §3, §4

[9] = target: T2, glycated hemoglobin HbA1c; test: impedance; HbA1C-specific, Kd stated only as nanomolar range; conditions: tags: none; purified HbA1C from Monojo (Amman, Jordan); immobilized on cysteamine/PDITC gold electrode; chain copies: 2
Method: as §1
A significant change in the $Rct$ after the incubation of most of the tested aptamers with the HbA1C electrodes while no response was obtained with scrambled DNA sequence (control DNA) indicating specific binding of the aptamers to HbA1C. […] The highest change in EIS signal was obtained for aptamers G11, G23, G18, G20, G15, therefore these aptamers were subjected to further analysis to assess their binding affinity. The dissociation constants were determined by incubating different concentrations of the aptamers with Hb and HbA1C-modified electrodes. […] The K_d were then calculated from the binding curve using non linear regression analysis. […] Four HbA1C-specific aptamers with high affinity and specificity were obtained (G11, G18, G20, G23). […] The aptamer sequences may be made in full or part of it may be used for binding studies. Thus, from our SELEX screening, an aptamer that bind to the tHb (G15) as well as specific aptamers to HbA1C (G20) were obtained.

T1 sequence (P02769 25-607, one chain of several): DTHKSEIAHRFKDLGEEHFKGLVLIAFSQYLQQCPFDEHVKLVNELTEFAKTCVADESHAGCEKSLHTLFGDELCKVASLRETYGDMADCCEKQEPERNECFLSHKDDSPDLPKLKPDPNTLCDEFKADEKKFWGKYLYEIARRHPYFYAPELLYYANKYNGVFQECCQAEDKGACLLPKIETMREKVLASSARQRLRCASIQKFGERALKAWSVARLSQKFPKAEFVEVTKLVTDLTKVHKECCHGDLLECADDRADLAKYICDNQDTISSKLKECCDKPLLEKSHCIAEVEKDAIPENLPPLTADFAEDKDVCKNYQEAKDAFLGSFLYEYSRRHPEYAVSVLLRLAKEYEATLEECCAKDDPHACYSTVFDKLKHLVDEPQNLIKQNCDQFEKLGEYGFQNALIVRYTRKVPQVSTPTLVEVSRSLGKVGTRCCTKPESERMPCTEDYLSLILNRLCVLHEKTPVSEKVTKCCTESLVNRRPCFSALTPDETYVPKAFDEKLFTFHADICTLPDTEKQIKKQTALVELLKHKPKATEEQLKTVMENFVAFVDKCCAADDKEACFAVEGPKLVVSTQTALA

B1: G20 (ssDNA)
DNA: GGGGACACAGCAACACACCCACCCACCAGCCCCAGCATCATGCCCATCCGTCGTGTGTG
[1]
  binding result: no binding
[2]
  Kd: 2.8 nM

B2: thiol-G20 (ssDNA)
DNA: GGGGACACAGCAACACACCCACCCACCAGCCCCAGCATCATGCCCATCCGTCGTGTGTG
modifications: 5' HS-(CH2)6
[3]
  binding result: binds
[4]
  binding result: no binding

B3: G4 (ssDNA)
DNA: GGGCCGACGGGAGGGGGAGGGAGAGCAATACGAGGTGGGATGGCAGATTATGGGTGCACT
[5]
  binding result: binds

B4: G15 (ssDNA)
DNA: ACGCACACCAGAGACAAGTAGCCCCCCAAACGCGGCCACGGAACGCAGCACCTCCATGGC
[6]
  binding result: no binding
[7]
  Kd: 2.7 nM
[2]
  Kd: 3.3 nM

B5: thiol-G15 (ssDNA)
DNA: ACGCACACCAGAGACAAGTAGCCCCCCAAACGCGGCCACGGAACGCAGCACCTCCATGGC
modifications: 5' HS-(CH2)6
[8]
  binding result: binds
[4]
  binding result: no binding

B6: G18 (ssDNA)
DNA: GGCCACAGCAGCCAGTACACCCACCCACCAGCCCCGTCAACGACCTGAACCTGCCCTGTGTG
[9]
  binding result: binds

B7: G23 (ssDNA)
DNA: GGACACGGCAAAGGGGTATAGCCTACCGGACCGTGGACATGGAATTGTGTGCTGCGTGG
[9]
  binding result: binds

B8: G11 (ssDNA)
DNA: CGACACCAGCACACAGACCCGAGACACACGTCAGATCAACAGCGACCGTATCATTGGTTG
[9]
  binding result: binds
